“And” between values parts separate entries of the source, which are not always exact repeats. Identical values can stand only once. Like-named read-outs stand apart in the source and are kept apart here. Positions of bridges follow the written chain, without caps; N, C: chain ends. Non-standard residues stand in square brackets, D forms with d.

Test [1] concerns the target acidic fibroblast growth factor (aFGF) (UniProt P05230 16-155, limits assumed). Put plainly: cell-based or functional assay.
Test [2] addresses insulin-like growth factor-1 (IGF-1) (UniProt P05019 49-118). Kind of test: cell-based or functional assay.
Test [3] deals with T1, vascular endothelial growth factor (VEGF) (UniProt P15692-4 27-191, limits assumed). Kind of test: cell-based or functional assay.
Test [4] deals with T2, platelet derived growth factor PDGF-BB (UniProt P01127 82-190). Put plainly: cell-based or functional assay.
For test [5], the target named is T1, vascular endothelial growth factor …. Kind of test: cell-based or functional assay. This is another data set of the same source.
Test [6] has as its target T2, platelet derived growth factor PDGF-BB. Kind of test: cell-based or functional assay. The source holds these as a separate data set.
The target of test [7] is T1, vascular endothelial growth factor …. Put plainly: inhibition of [125I]-VEGF binding to NIH 3T3 cells overexpressing Flk-1, GFB-111 10 µM.
The target of test [8] is insulin-like growth factor-1 (IGF-1) (UniProt P05019). Put plainly: cell-based or functional assay.
Test [9] concerns the target T1, vascular endothelial growth factor …. Kind of test: cell-based or functional assay. This is another data set of the same source.
In test [10] the target is T2, platelet derived growth factor PDGF-BB. Kind of test: inhibition of [125I]-PDGF-BB binding to NIH 3T3 cells (PDGFR), 4 °C.
Test [11] has the same target. Kind of test: cell-based or functional assay. The source holds these as a separate data set.

T1 sequence (P15692 other isoform, or with tags, fused parts or gaps limits assumed): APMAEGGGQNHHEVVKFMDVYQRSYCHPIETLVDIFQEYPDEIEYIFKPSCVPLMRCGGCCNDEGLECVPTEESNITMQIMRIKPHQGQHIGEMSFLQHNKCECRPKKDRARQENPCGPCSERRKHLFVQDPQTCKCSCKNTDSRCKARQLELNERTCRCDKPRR
insulin-like growth factor-1 (IGF-1) (UniProt P05019 49-118), sequence (P05019 49-118 limits assumed): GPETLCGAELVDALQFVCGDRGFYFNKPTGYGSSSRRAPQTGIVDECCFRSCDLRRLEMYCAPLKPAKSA
insulin-like growth factor-1 (IGF-1) (UniProt P05019), sequence (P05019 49-118 limits assumed): as above
acidic fibroblast growth factor (aFGF), sequence (P05230 16-155 limits assumed): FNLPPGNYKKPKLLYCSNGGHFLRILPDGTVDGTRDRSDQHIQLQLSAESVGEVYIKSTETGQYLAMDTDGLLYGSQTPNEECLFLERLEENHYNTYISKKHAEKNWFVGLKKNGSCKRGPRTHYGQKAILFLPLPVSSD
T2 sequence (P01127 82-190 limits assumed): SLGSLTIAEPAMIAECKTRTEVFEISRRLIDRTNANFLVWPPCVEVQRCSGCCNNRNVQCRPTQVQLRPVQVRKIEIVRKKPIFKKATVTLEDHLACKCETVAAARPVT

B1: GFB-105 (designed binder)
peptide: GDFD
modifications: linker N-C via 3‑aminomethyl‑5‑aminobenzamide; also: four loops on But-Calix calix[4]arene scaffold
On to B1, for which, in [1], the “(IC50) Inhibition, p42” value was 66.4 µM per head; likely % and the “(IC50) Inhibition, p44” value was 75.7 µM per head; likely %. Further, in test [2], the % Inhibition (as a rule, the change of the read-out against control, counted positive when it falls) at 100 µM, IGF1R-Y-P was found to be 1.3%. In test [3], the “IC50, p42” value was greater than 100 µM and the “IC50, p44” value was greater than 100 µM.

B2: GFB-116 (designed binder)
peptide: GKGK
modifications: linker N-C via 3‑aminomethyl‑5‑aminobenzamide; also: four loops on But-Calix scaffold
On to B2, for which, in test [1], the “(IC50) Inhibition, p42” value is 99.2 µM per head; likely % and 99.6 µM per head; likely % and 102 µM per head; likely % and 99.7 µM per head; likely %; the “(IC50) Inhibition, p42 (mean)” value is 100 µM per head; likely %; the “(IC50) Inhibition, p44” value was 97.5 µM per head; likely % and 97.2 µM per head; likely % and 116 µM per head; likely % and 99.9 µM per head; likely %; the “(IC50) Inhibition, p44 (mean)” value is 103 µM per head; likely %. In addition, in [4], the IC50, PDGFR-Y-P is 40 µM and the IC50, p42/Erk2 came to 28 µM. In addition, in test [3], the “IC50, Flk-1-Y-P” value came out at 0.3 µM; the “IC50, p42” value was 5 µM; the “IC50, p44” value stood at 5 µM. Besides, the “IC50, VEGF-stimulated flk-1 tyrosine phosphorylation” value in test [5] is 3000 µM.

B3: GFB-113 (designed binder)
peptide: GDSD
modifications: linker N-C via 3‑aminomethyl‑5‑aminobenzamide; also: four loops on But-Calix calix[4]arene scaffold
Take B3: in test [1], the “(IC50) Inhibition, p42” value is 53.6 µM per head; likely % and the “(IC50) Inhibition, p44” value is 64.3 µM per head; likely %. In [2], the “% Inhibition at 100 µM, IGF1R-Y-P” value is -18.9%; the “% Inhibition at 100 µM, p42” value is -31.4%; the “% Inhibition at 100 µM, p44” value was found to be 18.7%. In test [6], the “IC50, PDGFR-Y-P” value is 2.8 µM and the “IC50, p42/Erk2” value came out at 30 µM. In addition, in [3], the “IC50, Flk-1-Y-P” value is less than 10 µM; the “IC50, p42” value stood at 10 µM; the “IC50, p44” value was found to be 10 µM.

B4: GFB-112 (designed binder)
peptide: ADGD
modifications: linker N-C via 3‑aminomethyl‑5‑aminobenzamide; also: four loops on But-Calix calix[4]arene scaffold
For B4, in [1], the “(IC50) Inhibition, p42” value was 59.7 µM per head; likely % and 40.2 µM per head; likely %; the “(IC50) Inhibition, p44” value was 62.9 µM per head; likely % and 39.6 µM per head; likely %. In addition, in test [2], the “% Inhibition at 100 µM, IGF1R-Y-P” value amounted to 0.6%; the “% Inhibition at 100 µM, p42” value is -7.6%; the “% Inhibition at 100 µM, p44” value is 30.4%. For the same molecule, in [6], the “IC50, PDGFR-Y-P” value was found to be 29 µM and the “IC50, p42/Erk2” value is 26 µM. Moreover, in test [3], the “IC50, Flk-1-Y-P” value was less than 10 µM; the “IC50, p42” value worked out at 10 µM; the “IC50, p44” value amounted to 10 µM.

B5: GFB-111 (designed binder)
peptide: GDGY
modifications: linker N-C via 3‑aminomethyl‑5‑aminobenzamide; also: four loops on But-Calix calix[4]arene scaffold
Turning to B5, the inhibition of [125I]-VEGF binding at 10 µM GFB-111 in test [7] came out at 50%. Besides, the “(IC50) Inhibition, p44” value in [1] is 68 µM per head; likely % and 51.8 µM per head; likely %. In addition, in test [4], the IC50, PDGF-BB stimulated DNA synthesis ([3H]-thymidine incorporation) worked out at 6.5 µM; the IC50, PDGF-dependent activation of Erk1 was 0.8 µM; the IC50, PDGF-dependent activation of Erk2 came to 1.2 µM; the IC50, PDGFR-Y-P is 0.25 µM. In test [4], this molecule displayed an IC50, p42/Erk2 of 2.6 µM and a PDGF-BB stimulation of receptor tyrosine phosphorylation, complete block of 3 µM. In test [8], the % Inhibition at 100 µM, IGF1R-Y-P was -12.4%; the % Inhibition at 100 µM, p42 was -18.4%; the % Inhibition at 100 µM, p44 turned out to be 10.7%. Also, in test [9], the IC50, Flk-1-Y-P is 5 µM; the IC50, VEGF-stimulated Flk-1 tyrosine phosphorylation and MAPK activation amounted to 10 µM; the IC50, p42 was found to be 10 µM; the IC50, p44 is 10 µM. In addition, in test [10], the concentration for half-maximal inhibition (IC50) (in general, the concentration needed to halve the response being measured) is 0.25 µM.

B6: GFB-115 (designed binder)
peptide: GKGF
modifications: linker N-C via 3‑aminomethyl‑5‑aminobenzamide; also: four loops on But-Calix scaffold
On to B6, for which, in test [1], the “(IC50) Inhibition, p42” value is -21 µM per head; likely % and the “(IC50) Inhibition, p44” value is -23.9 µM per head; likely %. In test [2], the “% Inhibition at 100 µM, IGF1R-Y-P” value is -38.3%; the “% Inhibition at 100 µM, p42” value was -12.4%; the “% Inhibition at 100 µM, p44” value is 51.9%. In test [6], the “IC50, PDGFR-Y-P” value is greater than 50 µM and the “IC50, p42/Erk2” value is greater than 50 µM. In test [3], the “IC50, p42” value is 5 µM and 10 µM; the “IC50, p44” value was 5 µM and 10 µM. Further, the “IC50, PDGF-BB-stimulated PDGF receptor tyrosine autophosphorylation” value in test [11] came out at 50 µM.

B7: GFB-108 (designed binder)
peptide: [dA]DGD
modifications: linker N-C via 3‑aminomethyl‑5‑aminobenzamide; also: four loops on But-Calix calix[4]arene scaffold
As to B7, in [1], the “(IC50) Inhibition, p42” value is 67.8 µM per head; likely % and the “(IC50) Inhibition, p44” value was 80.1 µM per head; likely %. In [2], the “% Inhibition at 100 µM, p42” value was found to be 67.8% and the “% Inhibition at 100 µM, p44” value came to 80.1%. Also, in test [6], the “IC50, PDGFR-Y-P” value amounted to 9 µM and the “IC50, p42/Erk2” value is 57 µM. Besides, in [3], the “IC50, Flk-1-Y-P” value is 10 µM; the “IC50, p42” value came to 50 µM; the “IC50, p44” value was 50 µM.
